Tested on: K4 kissing-loop RNA reporter
Assay: apparent KD of K4 kissing-loop reporter; higher = weaker reporter binding
Conditions: Eterna round: R107
Protocol: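 RNA-MaP round R107: designed RNA switches with theophylline, tryptophan, arginine or FMN aptamers are transcribed on-chip within common flanks. They are titrated with a labelled K4 kissing-loop RNA reporter in RNA-MaP buffer (100 mM Tris pH 7.5, 80 mM KCl, 4 mM MgCl2), without ligand or with the indicated ligand. Median apparent KD per design.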

[1] = input ligand: theophylline 20 uM
[2] = input ligand: tryptophan 2.4 mM
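Also: bound reporter read as fluorescence of individual clusters on recovered sequencing chips by microscopy, with normalized cluster intensities fitted with a binding model.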

Sequence	apparent KD of K4 kissing-loop reporter (input ligand: FMN 200 uM)	apparent KD of K4 kissing-loop reporter (input ligand: arginine 13.2 mM)	apparent KD of K4 kissing-loop reporter (input ligand: none)	apparent KD of K4 kissing-loop reporter [1]	apparent KD of K4 kissing-loop reporter [2]
GGAGUUACCUGGGAUACCAGUCGGAGUCCCAGAGCUCGGAGUGAUGUUCUGGGAUGUUUCGGCCCUUGGCAGCUCUGGGACUCCC [#2 Exclusion - Theophylline B Attempt #9 (HarryS)]	893 nM	597 nM	776 nM	726 nM	780 nM
GGUGUUGUUUGUGCUGUUUUCCUCGUUCCUCGAGGACCGGUACGGCCGCCACUCGAGUGAUGUUUGGGUAGCGAUCCCUGUUAGU [Bdazzled - #8 Exc. Tryptophan A]	624 nM	504 nM	675 nM	649 nM	593 nM
GGAUUCGGCGCGGCCGCCACUUCCGGUGGCUGGUGUCAUGGUGCGCGUGAGUGAUGUUUAUGUGGGAGGACCGGGCGUUGAGUCC [whbob_Ex_Tryp_B_w45]	577 nM	322 nM	767 nM	441 nM	305 nM
AGUAUGUAAUAUGGCAUAUUUAGAACUGAAGGAGCGCCGAAUAAGGCAGGUAGGUCGCGGAAAUAUGAGUGAUGUUCAUGUUUAA [KL-SSArg-A25]	88 nM	103 nM	101 nM	113 nM	82.8 nM
UGAUACCAGACGGCCGCCACUCCCGUAAGUCAAAGACUUACGAAGAGAAUCGUCCAGUGAUGUUGGAGGACCGGGUCUGGUAUCU [FiskerMod 11 - Jieux - Exclusion - Tryptophan B]	680 nM	664 nM	818 nM	600 nM	785 nM
UUAUAUUUUAUAUUUAGAUGAUCUAUAGCACGAGGACCGGUACGGCCGCCACUCGAGUGAUGUUCGAGAGCUAUAGAUCAUCAUU [AK2.2 EXC Tryptophan A]	142 nM	132 nM	148 nM	121 nM	207 nM
GCGUUACUGAAAGGAUAUGAUCAACAUAGUGGUCAGUGAUGUUGGCAGGCCUCGUGGCGAGGUAGAUCAGAAGGUUCAUUACGAC [theeternabot_sameState_KL_FMN_B_11]	415 nM	484 nM	553 nM	502 nM	482 nM
AGACUACCACACUGUCAAUAGACAGUGAACUCGGAUAUGCUGAUAAGCAGAAGGAGUGAUGUUCCGAGGUAGUCAAUAAAAUAAU [FmnAX 13 C32+G66]	263 nM	316 nM	568 nM	448 nM	521 nM
UACAGGGCGAGUGAUGUUUGCUCAUGUGAUACCAGUGCCAUCCAACACCCUUGGCAGCAUGCGGGCAGUGAUGUUGUCCUUGGUU [Exclusion Theophylline A GF11]	294 nM	223 nM	280 nM	278 nM	249 nM
AAUAAGUGUCAGCGAGUGAUGUUCGACGAUACCAGACUCGAUAGAGUCCCUUGGCAGCGUAACGCAUGCCAAACUGGCACAAUAA [#SwitchBubble 8 #K4Early]	444 nM	444 nM	611 nM	507 nM	450 nM
AUUUAAUUAACUGAUACCAGACUUAAUGUUUUGUAUAUUACUAGUGAUGUUAGUGAUUCUGUCCCUUGGCAGCAGUAUCUACUUA [JR_ExcTheophyB_Sub014]	140 nM	152 nM	152 nM	153 nM	117 nM
CGCCGCAAGGCGGUCCUGCCCACUCCGGAAGGAGCGCCCGCAAGGGCAGGUAGGUCGCCGGAGUGAUGUUCCGGUGGCAGGACCG [#2 Exclusion - Arginine A Attempt #4 (Inspired by Omei)]	477 nM	112 nM	422 nM	264 nM	245 nM
CCUAUCUCAUACGAUACCAGUCAAUGAUCUUUGAUCAAUGCCAUCACCGAGUGAUGUUCGGACCCUUGGCAGCGUAUGAGAUGGG [whbob_Ex_Theo_B_sa104]	276 nM	203 nM	255 nM	376 nM	246 nM
AUGGUAUUGCGAGGAUAUCCUUCCCACGUCGAAGUACCGUGCUUGAUGGAGUGAUGUUCGAUCAGAGGAGAAGGCGCGGUGUUAU [Same State FMN B GF22]	706 nM	368 nM	572 nM	645 nM	639 nM
CUAGCCGGGAAAGGAUAUACACACGCACAUAACGAGUGAUGUUCGUUAAUACCAACUUGGUUAACUGUAGAAGGUUCAUCGUCAC [theeternabot_sameState_KL_FMN_B_36]	579 nM	576 nM	803 nM	793 nM	517 nM
AGGAUCCGUCGACAAAAGUCGACAUAAUCCGAGGAUAUGACGAAAGUCAGAAGGUGGACAUAAGUCCAGUGAUGUUGGAGGAUCC [FmnA 17 #SwitchBubble #K4Late]	847 nM	218 nM	441 nM	420 nM	193 nM
GGCGGCUGCGCGCAAGCGCAGCCGGCCGAUACCAGCGCGACGGCGCGCCCUUGGCAGCGGCGCCGAGUGAUGUUCGGCCUGCCGU [#2 Same State - Theophylline A Attempt #22 (HarryS)]	113 nM	98.1 nM	129 nM	149 nM	141 nM
CCUGGCGAGGUAACGUGGAUAUCUCGUCGCAAGGAUAUCUGGAAACAGAGAAGGUGCUACAUUACCGGCAGUGAUGUUGCUGACC	841 nM	336 nM	426 nM	455 nM	274 nM
